Source: FireProtDB (doi:10.1016/s0022-2836(02)00915-4)
“And” between values parts separate entries of the source, which are not always exact repeats. Identical values can stand only once.

B1: Protein GrpE, P09372 (parent)
chain: MSSKEQKTPEGQAPEEIIMDQHEEIEAVEPEASAEQVDPRDEKVANLEAQLAEAQTRERDGILRVKAEMENLRRRTELDIEKAHKFALEKFINELLPVIDSLDRALEVADKANPDMSAMVEGIELTLKSMLDVVRKFGVEVIAETNVPLDPNVHQAIAMVESDDVAPGNVLGIMQKGYTLNGRTIRAAMVTVAKAKA

Variants of: B1
Settings: Escherichia coli (strain K12); pH 6.8; Thermal; CD; potassium phosphate 10 mM; transition: 3; reversible: yes; structure 1DKG; whole UniProt chain shown

Variant	Tm [°C]	change of melting temperature, mutant - wild type (higher = more stable)
MSSKEQKTPEGQAPEEIIMDQHEEIEAVEPEASAEQVDPRDEKVANLEAQLAGAQTRERDGILRVKAEMENLRRRTELDIEKAHKFALEKFINELLPVIDSLDRALEVADKANPDMSAMVEGIELTLKSMLDVVRKFGVEVIAETNVPLDPNVHQAIAMVESDDVAPGNVLGIMQKGYTLNGRTIRAAMVTVAKAKA [E53G]	81	-2 °C
MSSKEQKTPEGQAPEEIIMDQHEEIEAVEPEASAEQVDPRDEKVANLEAQLAEAQTRERDGILRVKAEMENLRRRTELDIEKAHKFALEKFINELLPVIDSLDRALEVADKANPDMSAMVEDIELTLKSMLDVVRKFGVEVIAETNVPLDPNVHQAIAMVESDDVAPGNVLGIMQKGYTLNGRTIRAAMVTVAKAKA [G122D]		-3 °C and 0 °C and -2 °C
